According to patent US20240123070A1 (SHANGHAI GENBASE BIOTECHNOLOGY, published 2024):
Where a chain is given by its changes, count along the chain named.

B1: B8.2.4 TCR mutant β97V-T (TCR, V domains shown)
V domain 1: AQKITQTQPGMFVQEKEAVTLDCTYDTSDPSYGLFWYKQPSSGEMIFLIYQGSYDQQNATEGRYSLNFQKARKSANLVISASQLGDSAMYFCAMRERTGTASKLTFGTGTRLQVTL
V domain 2: DVKVTQSSRYLVKRTGEKVFLECVQDMDHENMFWYRQDPGLGLRLIYFSYDVKMKEKGDIPEGYSVSREKKERFSLILESASTNQTSMYLCASSQTTPPQHFGDGTRLSILE
B2: B8.2.4 TCR mutant β97V-W (TCR, V domains shown)
V domain 1: B1 V domain 1
V domain 2: B1 V domain 2 with T97W
B3: B8.2.4 TCR mutant β98P-R (TCR, V domains shown)
V domain 1: B1 V domain 1
V domain 2: B1 V domain 2 with T97V, P98R
B4: B8.2.4 TCR mutant β98P-S (TCR, V domains shown)
V domain 1: B1 V domain 1
V domain 2: B1 V domain 2 with T97V, P98S
B5: B8.2.4 TCR mutant β98P-C (TCR, V domains shown)
V domain 1: B1 V domain 1
V domain 2: B1 V domain 2 with T97V, P98C
B6: B8.2.4 TCR mutant β98P-G (TCR, V domains shown)
V domain 1: B1 V domain 1
V domain 2: B1 V domain 2 with T97V, P98G
B7: B8.2.4 TCR mutant β98P-I (TCR, V domains shown)
V domain 1: B1 V domain 1
V domain 2: B1 V domain 2 with T97V, P98I
B8: B8.2.4 TCR mutant β98P-E (TCR, V domains shown)
V domain 1: B1 V domain 1
V domain 2: B1 V domain 2 with T97V, P98E
B9: B8.2.4 TCR mutant β98P-K (TCR, V domains shown)
V domain 1: B1 V domain 1
V domain 2: B1 V domain 2 with T97V, P98K
B10: B8.2.4 TCR mutant β97V-Y (TCR, V domains shown)
V domain 1: B1 V domain 1
V domain 2: B1 V domain 2 with T97Y
B11: B8.2.4 TCR mutant β98P-A (TCR, V domains shown)
V domain 1: B1 V domain 1
V domain 2: B1 V domain 2 with T97V, P98A
B12: B8.2.4 TCR mutant β98P-Q (TCR, V domains shown)
V domain 1: B1 V domain 1
V domain 2: B1 V domain 2 with T97V, P98Q
B13: B8.2.4 TCR mutant β98P-D (TCR, V domains shown)
V domain 1: B1 V domain 1
V domain 2: B1 V domain 2 with T97V, P98D
B14: B8.2.4 TCR mutant β98P-H (TCR, V domains shown)
V domain 1: B1 V domain 1
V domain 2: B1 V domain 2 with T97V, P98H
B15: B8.2.4 TCR mutant β98P-L (TCR, V domains shown)
V domain 1: B1 V domain 1
V domain 2: B1 V domain 2 with T97V, P98L
B16: B8.2.4 TCR mutant β98P-M (TCR, V domains shown)
V domain 1: B1 V domain 1
V domain 2: B1 V domain 2 with T97V, P98M
B17: B8.2.4 TCR mutant β98P-F (TCR, V domains shown)
V domain 1: B1 V domain 1
V domain 2: B1 V domain 2 with T97V, P98F
B18: B8.2.4 TCR mutant β98P-N (TCR, V domains shown)
V domain 1: B1 V domain 1
V domain 2: B1 V domain 2 with T97V, P98N

target: KRAS G13D antigen (G13D-RT6, SEQ ID NO: 20) loaded on Lovo-DPA0301:DPB0501 cells (human); assay: cell-based or functional assay

In order of rising “TCR Mut RLU/WT RLU” value:
1. B7  0.33 ratio
2. B18  0.41 ratio
3. B12  0.45 ratio
4. B9  0.47 ratio
5. B11  0.5 ratio
6. B2  0.52 ratio
7. B10  0.54 ratio
8. B14  0.6 ratio
9. B15  0.67 ratio
10. B3  0.73 ratio
11. B6  0.73 ratio
12. B13  0.8 ratio
13. B16  0.83 ratio
14. B4  0.94 ratio
15. B17  0.96 ratio
16. B1  0.98 ratio
17. B8  0.99 ratio
18. B5  1.11 ratio
